# Experimental data as given in PMC10474099, “SLC39A10 promotes malignant phenotypes of gastric cancer cells by activating the CK2-mediated MAPK/ERK and PI3K/AKT pathways” (Experimental & Molecular Medicine, 2023).
# Biological target: the molecule itself
# Assay: native gel or EMSA; native PAGE with Coomassie blue staining; CK2β refolded in 20 mM Tris pH 7.2, 5 mM DTT with 4 μM ZnSO4 (presence of Zn2+); monomer to dimer
protein,measurement,value
"CK2β (casein kinase 2 regulatory β subunit), human, recombinant His-tagged (natural protein, human CK2β (casein kinase 2 beta subunit), Gene ID 1460, CSNK2B; cloned into pET-28a(+); The plasmid is named pET-28a (+)-HIS-CK2β; also called CSNK2B; HIS-CK2β) not shown",stoichiometry N,2
